In patent US20210324051A1 (published 2021) one finds EC50 data, which are given here for ten molecules.

Sequences and labels used below:
T1: Ravn strain cleaved MARV GP ectodomain (Marburg virus, Ravn strain, UniProt Q1PDC7 19-648)
T1 chain: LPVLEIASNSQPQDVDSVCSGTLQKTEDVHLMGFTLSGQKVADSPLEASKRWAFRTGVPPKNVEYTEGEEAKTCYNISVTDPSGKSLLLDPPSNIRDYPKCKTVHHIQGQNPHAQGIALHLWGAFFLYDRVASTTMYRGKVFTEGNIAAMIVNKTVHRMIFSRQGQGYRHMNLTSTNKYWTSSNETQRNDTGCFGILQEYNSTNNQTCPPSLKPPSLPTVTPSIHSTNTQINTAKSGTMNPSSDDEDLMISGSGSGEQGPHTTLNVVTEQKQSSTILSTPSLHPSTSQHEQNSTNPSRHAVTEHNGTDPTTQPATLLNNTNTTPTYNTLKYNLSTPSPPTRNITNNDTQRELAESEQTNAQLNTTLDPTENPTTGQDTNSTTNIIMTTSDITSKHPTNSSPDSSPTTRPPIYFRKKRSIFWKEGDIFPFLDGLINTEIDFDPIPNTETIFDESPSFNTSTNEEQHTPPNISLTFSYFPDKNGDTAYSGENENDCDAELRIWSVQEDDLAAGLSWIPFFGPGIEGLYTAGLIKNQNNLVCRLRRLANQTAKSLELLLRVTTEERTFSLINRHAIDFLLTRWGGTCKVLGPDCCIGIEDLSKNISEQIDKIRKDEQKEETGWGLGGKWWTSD

T2: EBOV Mayinga strain cleaved GP ectodomain (Ebola virus, Mayinga strain, UniProt Q05320 33-650)
T2 chain: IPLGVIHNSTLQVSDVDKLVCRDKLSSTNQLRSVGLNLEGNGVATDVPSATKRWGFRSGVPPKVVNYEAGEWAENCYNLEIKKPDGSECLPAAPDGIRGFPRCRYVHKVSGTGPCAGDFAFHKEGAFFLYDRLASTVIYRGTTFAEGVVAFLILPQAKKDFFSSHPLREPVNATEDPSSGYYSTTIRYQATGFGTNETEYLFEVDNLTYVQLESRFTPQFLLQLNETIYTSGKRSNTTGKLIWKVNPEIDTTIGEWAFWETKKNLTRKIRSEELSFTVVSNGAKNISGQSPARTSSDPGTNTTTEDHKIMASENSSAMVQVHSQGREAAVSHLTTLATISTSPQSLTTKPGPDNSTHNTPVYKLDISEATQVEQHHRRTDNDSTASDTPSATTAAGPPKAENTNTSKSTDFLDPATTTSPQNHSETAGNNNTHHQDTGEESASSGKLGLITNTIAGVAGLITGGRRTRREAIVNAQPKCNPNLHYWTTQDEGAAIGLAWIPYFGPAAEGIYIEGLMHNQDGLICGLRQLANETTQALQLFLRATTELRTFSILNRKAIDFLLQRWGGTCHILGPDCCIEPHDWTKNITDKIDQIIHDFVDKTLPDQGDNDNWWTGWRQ

T3: EBOV Mayinga strain GP ectodomain containing the glycan cap and mucin-like domain (Ebola virus, Mayinga strain, UniProt Q05320 33-650)
T3 chain: T2 chain

T4: Angola strain MARV GP ectodomain containing the mucin-like domain (Marburg virus, Angola strain, UniProt Q1PD50 19-648)
T4 chain: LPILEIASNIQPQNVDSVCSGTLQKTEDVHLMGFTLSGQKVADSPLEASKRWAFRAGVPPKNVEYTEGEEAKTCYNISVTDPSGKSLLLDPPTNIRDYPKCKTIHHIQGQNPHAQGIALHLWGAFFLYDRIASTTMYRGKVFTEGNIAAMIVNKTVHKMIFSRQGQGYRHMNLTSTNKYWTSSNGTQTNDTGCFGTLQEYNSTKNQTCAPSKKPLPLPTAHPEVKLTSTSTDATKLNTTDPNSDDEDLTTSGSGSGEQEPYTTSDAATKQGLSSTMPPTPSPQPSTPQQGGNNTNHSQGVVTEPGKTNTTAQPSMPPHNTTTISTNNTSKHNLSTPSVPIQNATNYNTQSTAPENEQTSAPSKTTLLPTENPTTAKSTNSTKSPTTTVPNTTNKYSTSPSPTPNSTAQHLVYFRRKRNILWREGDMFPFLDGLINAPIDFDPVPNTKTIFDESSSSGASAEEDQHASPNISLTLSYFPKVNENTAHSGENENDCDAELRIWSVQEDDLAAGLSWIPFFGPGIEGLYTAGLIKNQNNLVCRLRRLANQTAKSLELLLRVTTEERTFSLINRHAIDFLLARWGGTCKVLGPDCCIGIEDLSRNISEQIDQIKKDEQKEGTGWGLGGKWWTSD

B1: MR111 human monoclonal antibody (antibody, V domains shown)
V domain 1: QVQLQESGPGLVKPSETLSLTCTVSGDSINNYYWSWIRQPPGKGLEWIGYIYYSNTNYNPSLKSRVTISVDTSKNQFSLRLSSVTAADTAVYYCARSPLFWFGEFFSSPDHFDFWGQGTL
V domain 2: QSALTQPASVSGSPGQSITISCTGTSSDVGSYDLVSWYQQHPGKAPKLMLYEGTKRPSGVSNRFSGSKSGNTASLTISGLQAEDEADYYCCSYAGGSTLVFGGGTQVTVL
B2: MR82 (antibody, V domains shown)
VH: QVQLVQSGAEVKKPGASVKVSCKASGHTFTTYAIHWVRQAPGQGLEWMGWINPDNDNTEYSQKFQGRVTITRDTSASTAYMELSSLISEDTAVFYCASASYTFWSGYYSGLDYWGQGTLVTVSS
VL: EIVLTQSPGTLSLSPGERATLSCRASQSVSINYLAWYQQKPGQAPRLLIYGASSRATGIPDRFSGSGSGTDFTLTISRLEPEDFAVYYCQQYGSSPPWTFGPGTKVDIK
B3: MR72 human monoclonal antibody (antibody, V domains shown)
VH: QLQLQESGPGLVKPSETLSLTCTVSGDSINNTNYYWAWIRQPPGKGLEYIGSIYYSGSTYYNPSLKSRVTMSVDASKNQFSLRLSSVTAADTAVYYCATHPTLGAFVLLWFGANFDHWGQGTLVTVSS
VL: QAVVTQPPSVSGAPGQRVTISCTGSSSNIGANYDVHWYQQLPGTAPKLLMYSNTNRPSGVPDRFSGSKSGTSASLAITGLQAEDEADYYCQSYDNSLNSWVFGGGTQLTVL
B4: MR232 (antibody, V domains shown)
VH: QLQLQESGPGLVKPSETLSLTCAVSGGSISSSGYCWGWIRQPPGKGLEWIASICSSGTTYFNSSLKSRVSISIDTSRPQFLLNLRSLTAADTAVYYCARQRMELHFLEWLFPFDSWGQGTLVTVSS
VL: DIVMTQSPATLSVSPGERATLSCRASQSVSSNLAWYQQKPGQAPRLLISGASTRATGIPARFSGSGSGTEFTLTISSLQSEDFAVYYCQQYINWPCSFGQGTKVDIK
B5: MR65 (antibody, V domains shown)
VH: EVQLLESGGGLVQPGGSLRLSCAASGFTFSSYAMSWVRQAPGQGLEWVSGISATGGNTYYPDSVKGRFTISRDNSKNTLYLQMNSLRAEDTAVYYCARPLQFLTWFDPWGQGTLVTVSS
VL: EIVLTQSPATLSLSPGERATLSCRASQSVNNFLAWYQQKPGQPPRLLIYDATNRATGIPARFSGSGSGTDFTLTISSLEPEDFAVYHCQHRSNWPSITFGQGTRLEIK
B6: MR229 (antibody)
chain 1: EVQLVESGGGLVKPGGSLRISCVTSGFTFGDYAMSWFRQAPGKGLEWVGFIRNKGYGGTIDYAASVKGRFTISRDDSKSIAYLQMNSLKTEDTAVYYCTGVRLHYDFWSGYDDDSFHIWGQGTM
chain 2: DGVMTQSPLSLPVTPGQPASISCRSTQSLVHGDGDTYLYWFQQRPGQSPRRLIYKVSNRDSGVPDRFSGSGSGTDFTLKISRVEAEDVGVYYCMQSTHWPPTFGQ
B7: MR209 (antibody)
chain 1: QLQLQESGPGLVKPSETLSLTCTVAGGPITSNNYYWGWIRQSPGKGLEWIGSVYYSGNTYYNPSIKTRVTMSVDTSKSQFSLKLNSVTAADTAVYYCARQFRLLQFVEWLHHFDSWGPGN
chain 2: SYVLTQPPSVSVAPGQTARIPCGGNDIANKRVHWYQQKPGQAPMLVVYDDGDRPSGIPERFSGSNSGNTATLTISRVEAGDEADYYCQVWENSSDLCVVFGGGTKLTVL
B8: MR208 (antibody, V domains shown)
VH: QVQLQESGPGLVKPSETLSLTCSVSGDSVSSGDYYWSWLRQPPGKGLEWIGYIYYSGATNYNPSLKSRVTISLDTSKNQFSLKLTSVTAADTAVYYCARERAGFLEWLFFEDWGQGT
VL: DIQMTQSPSSLSASVGDRVTIFCRASQSIGTYLSWYQQKPGKAPKVLIYATSNLQSGVPSRFSGSGSGTEFTLTISSLQPEDFATYYCQQSRTFGQGTKVDMK
B9: MR144 (antibody, V domains shown)
V domain 1: QVQLQESGPGLVKPSETLSLTCTVSGDSISRYYWSWIRQPPGKGLEWIGYLYYSGSTDYNPSLKSRVTISVDTSKNQFSLNLTSVTAADTAVYYCARGSSRGIGVVSHWFDPWGQGT
V domain 2: SYVLTQPPSVSVAPGQTARITCGGSNMGYKSVQWYQQRPGQAPVLVVYDDTDRPSGIPERFSGSNSGATATLTISSVEAGDEADYYCQVWDSSSDHHVVFGGGTQVTVL
B10: MR191 human monoclonal antibody (antibody, V domains shown)
VH: QLQLQESGPGLVKPSETLSLSCTVSGVSISDNSYYWGWIRQPPGKGLEWIGTISYSGNTYYNPSLKSRVSISGDTSKHQLSLKVSSVTAADTAVYYCARQRIVSGFVEWLSKFDYWGQGTLVTVSS
VL: QSVLTQPPSVSGAPGQRVTISCTGSSSNIGAGFDVHWYQQLPGTAPKLLIYDNNNRPSGVPDRFSGSKSGTSASLAITGLQAEDEADYYCQSYDTSLSGPVVFGGGTKLTVL

The target in the first assay is Angola strain MARV GP ectodomain lacking residues 257-425 of the mucin-like domain (Marburg virus, Angola strain, UniProt Q1PD50 19-648). The assay can be described thus: ELISA. (In general: In an ELISA, binding on a coated surface is turned into a signal by an enzyme label.)
With B1, the EC50 (commonly the concentration that produces a half-maximal response) came to 4.3 µg/mL.
The same measure, in the same setting: the value for B2 was 1.5 µg/mL; that for B3 was 4.7 µg/mL; that for B4 was 1.3 µg/mL.
On the same count and under the same terms, under B5 stands 7.5 µg/mL; under B6, 2.9 µg/mL; under B7, 5.4 µg/mL.
The same measure, in the same setting: under B8 stands 7.3 µg/mL; under B9, 8 µg/mL.
B10 displayed an EC50 of 5.1 µg/mL.

A further assay deals with EBOV Mayinga strain GP ectodomain lacking residues 314-462 of the mucin-like domain (Ebola virus, Mayinga strain, UniProt Q05320 33-650). The assay can be described thus: ELISA.
Molecule B1 yielded an EC50 of over 1000 µg/mL.
Still for that read-out and setting: the value for B2 was over 1000 µg/mL; that for B3 was 2.1 µg/mL.
Still for that read-out and setting: the value for B4 was over 1000 µg/mL; that for B5 was over 1000 µg/mL.
On the same count and under the same terms, the value for B6 was over 1000 µg/mL; that for B7 was over 1000 µg/mL.
For the molecule B8, the EC50 was over 1000 µg/mL.
In turn, B9 displayed an EC50 of over 1000 µg/mL.
Still for that read-out and setting: the value for B10 was over 1000 µg/mL.

Another assay deals with T1, Ravn strain cleaved MARV GP ectodomain. Description: ELISA.
On to B1, for which a half-maximal response (EC50) required 1.5 µg/mL.
Same read-out and setting: the value for B2 was 0.5 µg/mL.
The same measure, in the same setting: under B3 stands 0.8 µg/mL; under B4, 0.5 µg/mL; under B5, 5 µg/mL.
On the same count and under the same terms, the value for B6 was 1.2 µg/mL; that for B7 was 2 µg/mL; that for B8 was 2.8 µg/mL.
In turn, B9 displayed an EC50 of 3.3 µg/mL.
The same measure, in the same setting: under B10 stands 1.4 µg/mL.

For another assay, the target named is T2, EBOV Mayinga strain cleaved GP …. Description: ELISA.
Regarding B1, the EC50 was determined as 21.5 µg/mL.
As to B2, the EC50 is over 1000 µg/mL.
In the case of B3, the EC50 is under 0.1 µg/mL.
Same read-out and setting: the value for B4 was over 1000 µg/mL; that for B5 was over 1000 µg/mL.
On the same count and under the same terms, the value for B6 was over 1000 µg/mL; that for B7 was over 1000 µg/mL.
With B8, the EC50 was over 1000 µg/mL.
On the same count and under the same terms, under B9 stands over 1000 µg/mL; under B10, under 0.1 µg/mL.

Another assay concerns the target T3, EBOV Mayinga strain GP ectodomain …. Description: ELISA.
The molecule B1 showed an EC50 of over 1000 µg/mL.
Same read-out and setting: the value for B2 was over 1000 µg/mL; that for B3 was 6.1 µg/mL.
On the same count and under the same terms, the value for B4 was over 1000 µg/mL; that for B5 was over 1000 µg/mL; that for B6 was over 1000 µg/mL.
The same measure, in the same setting: under B7 stands over 1000 µg/mL; under B8, over 1000 µg/mL; under B9, over 1000 µg/mL.
B10 had an EC50 of over 1000 µg/mL.

For the next assay, the target named is T4, Angola strain MARV GP ectodomain …. Description: ELISA.
Turning to B1, the EC50 was 2.5 µg/mL.
The same measure, in the same setting: under B2 stands 1 µg/mL.
As to B3, the midpoint of the response, the EC50, lay at 3 µg/mL.
Still for that read-out and setting: under B4 stands 2 µg/mL; under B5, 8.3 µg/mL; under B6, 1.8 µg/mL.
Same read-out and setting: the value for B7 was 4 µg/mL; that for B8 was 5.6 µg/mL; that for B9 was 8.1 µg/mL.
Same read-out and setting: the value for B10 was 2.5 µg/mL.
